A short description of the data set: Enzyme stability: residual activity on pNPG after pre-incubation at high temperature and low pH. The class given is biochemical. The note with it: residual activity on pNPG at pH 7, 30° C. As for the experimental part:
Residual activity is determined by exposing the enzyme to stress conditions of elevated temperature for a period of time and then determining the β-glucosidase activity. The β-glucosidase activity of the enzyme exposed to stress conditions (“a”) is compared to that of a control in which the enzyme is not exposed to the stress conditions (“b”), and residual activity is equal to the ratio a/b. Exemplary conditions for determining thermostability are provided in Examples 9 and 13. In one embodiment the enzymes are exposed to stress conditions of 50° C. at pH 5.5 or 55° C. at pH 5.0 or 55° C. at pH 5.5, or 65° C. at pH 5.0 for about 1 hour, and assayed at 30° C., pH 7, for about 0.1 hour.
A colorimetric pNPG (p-nitrophenyl-(β-D-glucopyranoside)-based assay was used for measuring β-glucosidase activity. In a total volume of 100 μL, 20 μL clear media supernatant containing β-glucosidase enzyme was added to 4 mM pNPG (Sigma-Aldrich, Inc. St. Louis, Mo.) solution in 50 mM sodium phosphate buffer at pH6.5. The reactions were incubated at pH 6.5, 45° C. for 1 hour. The reaction mixture was quenched with 100 μL of 1M sodium carbonate pH 11 solution. The absorbance of the solution was measured at 405 nm to determine the conversion of pNPG to p-nitrophenol. The release of p-nitrophenol (ε=17,700 M−1 cm−1) was measured at 405 nm to calculate β-glucosidase activity. Detectable β-glucosidase activity was observed under high throughput screening conditions (pH 7, 50° C.).
Four CelA variants and wildtype CelA were characterized to determine their stabilities at high temperature (55° C.) and low pH (pH5.5) using the method of Example 5A. The samples containing various CelA variant enzymes were pre-incubated at pH 5.5, 55° C. for 0-6 hrs. The residual enzyme activity after the thermal challenge was measured using pNPG as substrate at pH 7, 30° C. for 1 hr. […] The mutations listed in the table are indicated relative to SEQ ID NO: 4, the wildtype CelA. These sequences included residues GTS prior to the N-terminus of SEQ ID NO: 4 (prepared as described in Example 1). […]

Experimental findings from patent publication US8357523B2, “Beta-glucosidase variant enzymes and related polynucleotides” (Codexis, Inc., priority 2009, dated 2013) are described below.

B1: Variant No. 264 (protein)
chain: SAAIAQEGAAPAAMLHPEKWPRPATQRLIDPAVEKRVDALLKQLSVEEKVGQVIQGDIGTITPEDLRKYPLGSILAGGDSGPNGDDRAPPKEWLDLADAFYRVSLEKRPGHTPIPVLFGIDAVHGHGNIGSATIFPHNIALGMTRDPELLRRIGEVTAEEMAATGIDWTFAPALSVVRDDRWGRTYEGFSEDPEIVASYSAAIVEGVQGKYGSKDFMAPGRAVACAKHFLADGGTDQGRDQGDARISEDELIRIHNAGYPPAIDAGVLTVMASFSSWQGIKHHGHKQLLTDVLKGQMGFNGFIVGDWNAHDQVPGCTKFNCPTSLIAGLDMYMAADSWKQLYENTLAQVKDGTIPMARLDDAVRRILRVKVLAGLFEKPAPKDRPGLPGLETLGSPEHRAVGREAVRKSLVLLKNDKGTLPLSPKARVLVAGDGADNIGKQSGGWTISWQGTGNRNDEFPGATSILGGIRDAVADAGGSVEFDVAGQYKTKPDVAIVVFGEEPYAEFRGDVETLEYQPDQKQDLTLLKKLKDQGIPVVAVFLSGRPMWVNPELNASDAFVAAWLPGTEGGGVADVLFTDKAGKVQHDFAGKLSYSWPRTAAQTTVNRGDADYNPLFAYGYGLTYKDKSKVGTLPEESGVPAEARQN
Take B1: the “% residual activity after 10 mins @ pH 5.5, 55° C.” value (pre-incubation 10 mins at pH 5.5, 55° C., 1 hr) was determined as 95%. Under “pre-incubation 1 hour at pH 5.5, 55° C.”, the “% residual activity after 1 hour @ pH 5.5, 55° C.” value is 78%. In addition, the “% residual activity after 6 hours @ pH 5.5, 55° C.” value (pre-incubation 6 hours at pH 5.5, 55° C., 1 hr) stood at 11%.
